From PMC9564178 (Cells, 2022)

Legend:
[1] = biological target: T1, human recombinant TPPP1 (hexaHis fusion) (human, UniProt O94811 1-219); assay: ELISA; TPPP3 immobilised; recombinant TPPP1 added at different concentrations with extract of non-transfected HeLa cells (0.32 mg/mL); detected by monoclonal TPPP1 antibody; apparent Kd; details: both partners purified
T1 construct: human TPPP1 (Tubulin Polymerization Promoting Protein, TPPP/p25), UniProtKB O94811, 219 amino acids; probably the whole 219-residue protein; also called TPPP/p25; source: E. coli BL21 (DE3), isolated on a HIS-Select Cartridge

[2] = biological target: T1, human recombinant TPPP1 (hexaHis fusion); assay: ELISA; TPPP3 immobilised (5 μg/mL, PBS); recombinant TPPP1 added at different concentrations, without HeLa extract; detected by monoclonal TPPP1 antibody; apparent Kd, single-site hyperbola; details: both partners purified

T1 sequence (O94811 whole entry, the tested form may be a part): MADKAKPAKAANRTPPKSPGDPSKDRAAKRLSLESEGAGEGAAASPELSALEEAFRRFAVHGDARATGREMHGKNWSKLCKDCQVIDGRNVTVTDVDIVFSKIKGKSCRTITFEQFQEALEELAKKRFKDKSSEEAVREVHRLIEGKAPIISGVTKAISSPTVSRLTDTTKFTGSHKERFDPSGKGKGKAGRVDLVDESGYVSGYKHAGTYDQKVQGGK

B1: human recombinant TPPP3 (hexaHis fusion) (natural protein)
chain: AGLEESFRKFAIHGDPKASGQEMNGKNWAKLCKDCKVADGKSVTGTDVDIVFSKVKGKSARVINYEEFKKALEELATKRFKGKSKEEAFDAICQLVAGKEPANVGVTKAKTGGAVDRLTDTSRYTGSHKERFDESGKGKGIAGRQDILDDSGYVSAYKNAGTYDAKVKK
notes: human TPPP3 (Tubulin Polymerization Promoting Protein 3), UniProtKB Q9BW30, 176 amino acids; probably the whole 176-residue protein; also called TPPP/p20; source: E. coli BL21 (DE3), isolated on a HIS-Select Cartridge
Kd [1]: 47.7 nM | Kd [2]: 6.53 nM
